# Laboratory results as given in US20190022198A1, “Individualized Immunomodulation Therapy for Neurodegenerative Disorders, CNS Injury and Age-Related Dementia” (Yeda Research and Development Co. Ltd., priority 2012, published 2019).
# Entries after “also recorded” stand apart in the source; their conditions may differ.
# B1: IL-10: Treg-derived cytokine, purchased from PeproTech (protein, UniProt P18893 19-178, looked up)
# Interleukin-10: SRGQYSREDNNCTHFPVGQSHMLLELRTAFSQVKTFFQTKDQLDNILLTDSLMQDFKGYLGCQALSEMIQFYLVEVMPQAEKHGPEIKEHLNSLGEKLKTLRMRLRRCHRFLPCENKSKAVEQVKSDFNKLQDQGVYKAMNEFDIFINCIEAYMMIKMKS
# B2: IL-17: Th17-derived cytokine, purchased from PeproTech (protein, UniProt Q62386 26-158, looked up)
# Interleukin-17A: AAIIPQSSACPNTEAKDFLQNVKVNLKVFNSLGAKVSSRRPSDYLNRSTSPWTLHRNEDPDRYPSVIWEAQCRHQRCVNAEGKLDHHMNSVLIQQEILVLKREPESCPFTFRVEKMLVGVGCTCVASIVRQAA
# B3: GM-CSF: cytokine purchased from PeproTech (protein, UniProt P01587 18-141, looked up)
# Granulocyte-macrophage …: APTRSPITVTRPWKHVEAIKEALNLLDDMPVTLNEEVEVVSNEFSFKKLTCVQTRLKIFEQGLRGNFTKLKGALNMTASYYQTYCPPTPETDCETQVTTYADFIDSLKTFLTDIPFECKKPGQK
# B4: IL-6: pro-inflammatory cytokine, purchased from PeproTech (protein, UniProt P08505 25-211, looked up)
# Interleukin-6: FPTSQVRRGDFTEDTTPNRPVYTTSQVGGLITHVLWEIVEMRKELCNGNSDCMNNDDALAENNLKLPEIQRNDGCYQTGYNQEICLLKISSGLLEYHSYLEYMKNNLKDNKKDKARVLQRDTETLIHIFNQEVKDLHKIVLPTPISNALLTDKLESQKEWLRTKTIQFILKSLEEFLKVTLRSTRQT
# B5: IL-1β: pro-inflammatory cytokine, purchased from PeproTech (protein, UniProt P10749 118-269, looked up)
# Interleukin-1 beta: VPIRQLHYRLRDEQQKSLVLSDPYELKALHLNGQNINQQVIFSMSFVQGEPSNDKIPVALGLKGKNLYLSCVMKDGTPTLQLESVDPKQYPKKKMEKRFVFNKIEVKSKVEFESAEFPNWYISTSQAEHKPVFLGNNSGQDIIDFTMESVSS
# B6: IFN-γ: Th1-derived cytokine, purchased from PeproTech, added to cultured CP cells (protein, UniProt P01580 23-155, looked up)
# Interferon gamma: HGTVIESLESLNNYFNSSGIDVEEKSLFLDIWRNWQKDGDMKILQSQIISFYLRLFEVLKDNQAISNNISVIESHLITTFFSNSKAKKDAFMSIAKFEVNNPQVQRQAFNELIRVVHQLLPESSLRKRKRSRC
# Columns and labels:
# cultured CP cells = assay: Immunocytochemistry of cultured CP cells treated with cytokines; type: cell-based, mouse
# Protocol: For whole mount staining of the choroid plexus, isolated tissues were fixed with 2.5% paraformaldehyde (PFA) for several hours, and subsequently transferred to PBS containing 0.05% sodium azide. Prior to staining, the dissected tissues were washed and blocked (20% horse serum, 0.3% Triton X-100, and PBS) for 1 h at room temperature with shaking. Whole mount staining with primary (in PBS containing 2% horse serum and 0.3% Triton X-100) and secondary antibodies (in PBS), was performed for 1h at room temperature, with shaking. Each step was followed by three washes in PBS. The tissues were mounted onto slides, using Immu-mount (9990402, from Thermo), and sealed with cover-slips. For staining of sectioned brains, two different tissue preparation protocols (paraffin embedded and microtomed frozen sections) were applied, as previously described (Ziv Y et al (2006b)). For immunocytochemistry, CP cells were isolated as described above and were grown on PLL coated cover slips for 7 days, replacing the medium every 3 days. Cytokines were added for the last 3 days of culture. Following 7 days of culture, the wells were washed with PBS and the cells were fixed either with 2.5% paraformaldehyde for 30 min or methanol-acetone (1:1) for 10 min at −20° C., following by 2 washing steps with PBS. For CCL11 staining, cells were treated with Brefeldin-A 2 hours prior to fixation in order to arrest protein secretion. The cover slips of the cultured CP cells were incubated with the indicated antibodies and mounted with Glycerol Vinyl Alcohol (GVA) mounting solution (Invitrogen). The following primary antibodies were used: rat anti-CD3 (Abcam); rat anti-ICAM-1 (1:100; Abcam), chicken anti-vimentin (1:500, Millipore), rabbit anti-Iba1 (1:300; Wako), goat anti-IL-10 (1:20; R&D), mouse anti-MHC-II (Abcam); mouse anti-Arginase-1 (BD Biosciences); mouse anti-Cytokeratin (Covance); rat anti-CCL11 (R&D Systems); rabbit anti-ZO-1 (Invitrogen); and rabbit anti-Claudin-1 (Invitrogen). Secondary antibodies included: Cy2/Cy3-conjugated donkey anti-rat, mouse or rabbit antibody and Cy3 conjugated donkey anti-mouse, goat, rat, chicken or rabbit (1:200; all from Jackson Immuno Research). The slides were exposed to Hoechst stain (1:2000; Invitrogen) for 1 min. Two negative controls were routinely used in immunostaining procedures, staining with isotype control antibody followed by secondary antibody, and staining with secondary antibody alone. For morphological quantification, average cross-sectional area of epithelial cells was measured following Nissl staining. Cell borders (20-25 cells per picture) were marked and the area was quantified using Image-Pro Plus software in a blinded fashion.
# CP epithelial cells = assay: Primary culture of choroid plexus cells treated with cytokines, mRNA by real-time qPCR; type: cell-based, mouse; conditions: for gene expression levels of trafficking molecules (ICAM-1, VCAM-1, CCL5, CXCL9, CXCL10, MHC-II): cultured CP cells from WT mice; for gene expression levels of trafficking molecules (ICAM-1, VCAM-1, CCL5, CXCL9, CXCL10, MHC-II) / expression of IFN-γ-receptor (IFN-γR) mRNA: IL-6 10 ng/ml; for gene expression levels of trafficking molecules (ICAM-1, VCAM-1, CCL5, CXCL9, CXCL10, MHC-II) / expression of the chemokine CCL20: IL-17 100 ng/ml; for expression of trafficking-related genes, escalating dosing of the cytokines: escalating dosing (data not shown); for ccl11 mRNA levels (CCL11 expression): cultured CP epithelial cells from young (3 months) mice, 24 hours after addition; for expression of the chemokine CCL20 / expression of IFN-γ-receptor (IFN-γR) mRNA: CP epithelial cells; for expression of IFN-γ-receptor (IFN-γR) mRNA: TNF-α 100 ng/ml, IL-1β 100 ng/ml
# Protocol: Mice were perfused from the left ventricle of the heart with PBS, and their CPs were removed under a dissecting microscope (Stemi DV4; Zeiss) in PBS into tubes containing 0.25% trypsin, and kept on ice. The tubes were shaken for 20 minutes at 37° C. and the tissue was dissociated by pipetting. The cell suspension was washed in culture medium for epithelial cells (DMEM/HAM's F12 (Invitrogen Corp)) supplemented with 10% FCS (Sigma-Aldrich), 1 mM 1-glutamine, 1 mM sodium pyruvate, 100 U/ml penicillin, […] streptomycin, 5 μg/ml Insulin, 20 μM Ara-C, 5 ng/ml sodium selenite, 10 ng/ml EGF, and cultured (˜250,000 cells/well) at 37° C., 5% CO2 in 24-well plates (Corning Incorporated) coated with poly-L-lysine (PLL; Sigma-Aldrich). After 24 hours, the medium was changed, and the cells were either left untreated, or treated with the indicated cytokines (all purchased from PeproTech): IFN-γ, IL-4, IL-10, IL-17A, GM-CSF, IL-6, IL-1β or TNF-α or their combinations for 24 h. Cell viability was quantified by Trypan blue staining after detachment of the cells with 0.25% trypsin for 10 minutes at 37° C. Neutralizing antibodies to TNF-R1 or TNF-R2 ([…], BioLegend) were added 1 h prior to the addition of TNF-α (100 ng/ml). RNA was isolated using the ZR RNA microprep kit (Zymo Research) according to the manufacturer's protocol.
# Total RNA of the hippocampus was extracted with TRI reagent (MRC, Cincinnati, Ohio) and was purified from the lysates and spinal cord using the RNeasy kit (Qiagen, Hilden, Germany). Total RNA of the choroid plexus was extracted using the RNA MicroPrep kit (Zymo Research). mRNA (1 μg) was converted to cDNA using High Capacity cDNA Reverse Transcription Kit (Applied Biosystems). The expression of specific mRNAs was assayed using fluorescence based real-time quantitative PCR (qPCR). qPCR reactions were performed using Power SYBR Green PCR Master Mix (Applied Biosystems). Quantification reactions were performed in triplicates for each sample using the standard curve method. Glyceraldehyde 3-phosphate dehydrogenase (GAPDH), Peptidylprolyl isomerase A (PPIA), and hypoxanthine guanine phosphoribosyltransferase (HPRT) were chosen as reference genes according to their stability in the target tissue. The amplification cycles were 95° C. for 5 sec, 60° C. for 20 sec, and 72° C. for 15 sec. At the end of the assay, a melting curve was constructed to evaluate the specificity of the reaction. For some genes, the cDNA was pre-amplified in 14 PCR cycles with non-random PCR primers, thus increasing the sensitivity of the subsequent real-time PCR analysis (PreAmp Master Mix Kit, Applied Biosystems). For these genes, expression was determined using TaqMan Real-Time PCR, according to manufacturer's instructions (Applied Biosystems). All quantitative real-time PCR reactions were performed and analyzed using the 7500 Real-Time PCR System (Applied Biosystems). The following TaqMan probes were used: Mm02342430_g1 (ppia), Mm00446968_m1 (hprt), Mm00445260_m1 (il-4), Mm01168134_m1 (ifn-γ), Mm00441238_m1 (ccl11), Mm00475988_m1 (arg-1). In addition, the following primers were used: […]
# Foxp3-DTR mice = assay: Foxp3+ Treg depletion by diphtheria toxin in DEREG (Foxp3-DTR) mice; type: in vivo, mouse
# [1] = 24 hours, IFN-γ 100 ng/ml, IL-4 10 ng/ml
molecule,measurement,setting,value
"IL-4: Th2-derived cytokine, purchased from PeproTech, added to cultured CP cells",epithelial tight junctions (ZO-1 staining),cultured CP cells; CP epithelial cell cultures in response to IL-4 (data not shown),dysregulated
same,CCL11 immunoreactivity,"cultured CP cells; CP epithelium, IL-4, following Brefeldin-A treatment (data not shown)",produced CCL11
same,Arg1 immunostaining,cultured CP cells; IL-4 (10 ng/ml) treated CP epithelial cells,higher relative to untreated cells
same,"gene expression levels of trafficking molecules (ICAM-1, VCAM-1, CCL5, CXCL9, CXCL10, MHC-II)",CP epithelial cells; [1],no effect on trafficking molecules
same,"expression of trafficking-related genes, escalating dosing of the cytokines",CP epithelial cells; cultured CP cells,"None of the tested cytokines, other than IFN-γ, had any effect"
same,ccl11 mRNA levels (CCL11 expression),"CP epithelial cells; IL-4 10 ng/ml, IFN-γ 100 ng/ml",expressed high levels of CCL11
same,arginase-1 (Arg1) expression,"CP epithelial cells; cultured CP epithelial cells, IL-4 10 ng/ml, 24 h",upregulated arginase-1; also recorded: dramatic effect on the upregulation of arginase-1
diphtheria toxin [DTX],"Foxp3+ T cells in the spleen, the CP and the CSF","Foxp3-DTR mice; DTX 8 ng/g i.p. per day for 4 days, DTR+ mice",depleted
same,"mRNA of ICAM-1, CXCL9, CXCL10, CXCL11, MCP-1, MCSF, BDNF and IGF-1 in the CP",Foxp3-DTR mice; following Foxp3+ T cells depletion by DTX,significantly upregulated
B1,"expression of trafficking-related genes, escalating dosing of the cytokines",CP epithelial cells; cultured CP cells,"None of the tested cytokines, other than IFN-γ, had any effect"
B2,expression of the chemokine CCL20,"CP epithelial cells; IFN-γ 100 ng/ml, 24 h",elevated the expression of the chemokine CCL20
same,"gene expression levels of trafficking molecules (ICAM-1, VCAM-1, CCL5, CXCL9, CXCL10, MHC-II)",CP epithelial cells; [1],failed to activate the choroid plexus for trafficking
B3,"expression of trafficking-related genes, escalating dosing of the cytokines",CP epithelial cells; cultured CP cells,"None of the tested cytokines, other than IFN-γ, had any effect"
B4,expression of IFN-γ-receptor (IFN-γR) mRNA,CP epithelial cells; 24 h,not
same,"gene expression levels of trafficking molecules (ICAM-1, VCAM-1, CCL5, CXCL9, CXCL10, MHC-II)",CP epithelial cells; [1],"neither IL-17, nor its induced cytokine IL-6, had any effect"
same,"expression of trafficking-related genes, escalating dosing of the cytokines",CP epithelial cells; cultured CP cells,"None of the tested cytokines, other than IFN-γ, had any effect"
B5,expression of IFN-γ-receptor (IFN-γR) mRNA,CP epithelial cells; 24 h,elevated the expression of IFN-γ-receptor
B6,ICAM-1 and VCAM-1 immunostaining on CP epithelial cells,cultured CP cells; 3 days after addition of IFN-γ (100 ng/ml),elevated
same,IL-4 induced CCL11 immunoreactivity,"cultured CP cells; co-incubation of IFN-γ with IL-4, following Brefeldin-A treatment (data not shown)",reversed this induction
same,"expression of trafficking molecules (ICAM-1, VCAM-1, CCL5, CXCL10) mRNA","CP epithelial cells; CP epithelial cells from 70 day old WT and mSOD1 mice, IFN-γ 100 ng/ml, 24h",elevated the expression of trafficking molecules by both WT and mSOD1 CP cultures to a similar degree
same,expression of the chemokine CCL20,"CP epithelial cells; IFN-γ 100 ng/ml, 24 h",not
same,"expression of trafficking molecules, IFN-γ combined with TNF-α","CP epithelial cells; IFN-γ 100 ng/ml combined with TNF-α 100 ng/ml, 24 hours, most of the tested genes",strong synergistic effect
same,effect of IL-4 on CCL11 production,"CP epithelial cells; IFN-γ (100 ng/ml) added together with IL-4, young CP epithelial cells, 24 hours",reversed the effect of IL-4 on CCL11 production
same,"gene expression levels of trafficking molecules (ICAM-1, VCAM-1, CCL5, CXCL9, CXCL10, MHC-II)",CP epithelial cells; [1],induced the upregulation of a wide array of trafficking molecules
same,expression of TNF-R1 mRNA,"CP epithelial cells; cultured CP cells, IFN-γ 100 ng/ml, 24 h",elevated the expression of TNF-R1
same,"expression of chemokines CCL2, Fractalkine (CX3CL1) and M-CSF","CP epithelial cells; cultured CP cells, IFN-γ 100 ng/ml, 24 hours",upregulated
same,"expression of trafficking-related genes, escalating dosing of the cytokines",CP epithelial cells; cultured CP cells,activated the CP in a dose dependent manner
same,basal CCL11 expression,"CP epithelial cells; cultured CP epithelial cells from old (22 months) mice, IFN-γ 100 ng/ml, 24 hours",decreased basal CCL11 expression
same,ccl11 mRNA levels (CCL11 expression),"CP epithelial cells; IL-4 10 ng/ml, IFN-γ 100 ng/ml",had no effect on CCL11 expression
